Results on 3 substances are retold here after EP4053153A1.

Test [1] addresses human transferrin receptor (human) (UniProt P02786). Briefly: MST (Monolith NT.115); His-tag-dye-labelled protein, TfR titrated.
In test [2] the target is mouse transferrin receptor (mouse) (UniProt Q62351). Described as above.
mouse transferrin receptor (mouse), sequence (Q62351 89-763 limits assumed): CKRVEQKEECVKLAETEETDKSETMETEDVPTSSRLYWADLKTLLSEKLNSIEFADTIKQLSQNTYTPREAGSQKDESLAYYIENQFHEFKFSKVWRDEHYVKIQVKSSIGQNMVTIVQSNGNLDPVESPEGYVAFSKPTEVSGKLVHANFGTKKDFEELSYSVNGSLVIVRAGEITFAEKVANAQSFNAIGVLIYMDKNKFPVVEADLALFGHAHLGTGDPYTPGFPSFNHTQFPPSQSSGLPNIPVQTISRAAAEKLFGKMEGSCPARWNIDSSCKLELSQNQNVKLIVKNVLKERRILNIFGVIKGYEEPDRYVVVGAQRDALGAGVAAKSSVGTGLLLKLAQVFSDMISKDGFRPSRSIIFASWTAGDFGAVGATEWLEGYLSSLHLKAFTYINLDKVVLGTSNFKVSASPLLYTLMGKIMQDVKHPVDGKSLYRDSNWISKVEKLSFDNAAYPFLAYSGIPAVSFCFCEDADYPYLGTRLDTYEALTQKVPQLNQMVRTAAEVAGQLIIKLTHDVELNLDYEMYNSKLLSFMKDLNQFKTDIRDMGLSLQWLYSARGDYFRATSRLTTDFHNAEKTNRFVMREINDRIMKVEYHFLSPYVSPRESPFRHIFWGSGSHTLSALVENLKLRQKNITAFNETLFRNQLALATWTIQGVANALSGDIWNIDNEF

human transferrin receptor (human), sequence (P02786 89-760 limits assumed): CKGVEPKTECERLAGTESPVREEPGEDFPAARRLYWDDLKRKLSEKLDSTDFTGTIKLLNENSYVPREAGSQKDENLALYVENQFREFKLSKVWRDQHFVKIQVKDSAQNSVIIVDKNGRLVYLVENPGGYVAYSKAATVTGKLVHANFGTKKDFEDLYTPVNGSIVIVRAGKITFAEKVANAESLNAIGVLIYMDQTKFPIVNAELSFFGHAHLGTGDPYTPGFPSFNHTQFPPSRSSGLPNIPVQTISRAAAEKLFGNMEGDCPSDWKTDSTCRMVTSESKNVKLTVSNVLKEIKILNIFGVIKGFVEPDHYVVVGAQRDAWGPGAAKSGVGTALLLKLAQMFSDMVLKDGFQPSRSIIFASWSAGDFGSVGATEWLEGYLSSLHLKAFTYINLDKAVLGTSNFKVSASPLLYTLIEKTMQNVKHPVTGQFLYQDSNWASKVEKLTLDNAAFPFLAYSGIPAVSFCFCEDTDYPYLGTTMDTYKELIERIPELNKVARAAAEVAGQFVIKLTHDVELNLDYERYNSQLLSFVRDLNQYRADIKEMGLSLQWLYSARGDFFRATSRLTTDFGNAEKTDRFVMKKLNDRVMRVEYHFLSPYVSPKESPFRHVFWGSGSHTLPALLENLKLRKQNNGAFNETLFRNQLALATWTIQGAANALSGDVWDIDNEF

The term Kd denotes a measure of binding affinity in units of concentration. Lower therefore signals tighter binding. Regarding “DE-gp100-huHF (from UniProt P02794 1-183)”, the figures for the Kd in test [1] and in test [2] were 9.78 nM and 30.5 nM, respectively.

N-AH1-huHF (from UniProt P02794 1-183) came in with a Kd in test [1] of 84.6 nM.

Turning to “N-gp100-huHF (from UniProt P02794 1-183)”, the dissociation constant Kd is 18.5 nM in test [1] and 48.3 nM in test [2].
